The record followed here is patent EP4755917A1 (Fortvita Biologics Inc., dated 2026).

As usually defined, the Kd is the free concentration of one partner at which half of the binding sites on the other are occupied at equilibrium, for simple one-to-one binding.

The target of the experiment is T1, Human OX40L (antigen of the ForteBio affinity assay) (human, UniProt P23510 51-183, limits assumed).
T1 construct: It may be the Acro His-tagged protein, but nothing ties it to that; also called CD252; CD134L
T1 sequence (looked up): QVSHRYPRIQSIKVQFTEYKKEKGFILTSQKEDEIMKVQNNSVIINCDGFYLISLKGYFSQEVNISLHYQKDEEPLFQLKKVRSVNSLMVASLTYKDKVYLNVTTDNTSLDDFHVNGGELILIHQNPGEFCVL
Nature of the experiment: ForteBio (biolayer interferometry). In general terms: Biolayer interferometry detects binding as a change in optical thickness at a sensor tip.

B1: HZ22 (antibody, human IgG4 S228P, kappa, V domains shown)
VH: QVQLQESGPGLVKPSQTLSLTCTVSGYAVTGDYAWSWIRQPPGKRLEWIGYISSSAGTNYNPSLKSRVTISVDTSKNQFSLKLSSVTAADTAVYYCARDLYYGGRNQWYFDVWGQGTLVTVSS
VL: DIQMTQSPSSLSASVGDRVTITCSATSSIIYMHWYQQKPGKAPKLLIYDTSKLPSGVPSRFSGSGSGTDFTLTISSLQPEDFATYYCHQRSSFPFTFGGGTKVEIKR
notes: Humanized antibody expressed in HEK293; also called humanized anti-OX40L antibody
As to B1, the Kd was found to be 0.379 nM.

B2: HZ18 (antibody, human IgG4 S228P, kappa, V domains shown)
VH: EVQLVQSGAEVKKPGATVKISCKVSGYSFTGYRIHWVQQAPGKGLEWMGYVDPYDDKTDYSQKSKGRVTITADTSTDTAYMELSSLRSEDTAVYYCAREGFAYWGQGTLVTVSS
VL: DIQMTQSPSSLSASVGDRVTITCTSSSSLRYMHWYQQKPGKAPKLLIYNTFDLASGVPSRFSGSGSGTDFTLTISSLQPEDFATYYCQQRTTYPPTFGQGTKLEIKR
notes: as for B1
With B2, the Kd stood at 0.307 nM.
